Several values for one entry are separate records, joined by “and”; a condition that tells them apart may be missing. Identical values can stand only once.
Biological target: the molecule itself
Assay: cryo-EM structure

B1: Mycobacterium tuberculosis encapsulin shell protein (Enctb) (natural protein)
chain: MNNLYRDLAPVTEAAWAEIELEAARTFKRHIAGRRVVDVSDPGGPVTAAVSTGRLIDVKAPTNGVIAHLRASKPLVRLRVPFTLSRNEIDDVERGSKDSDWEPVKEAAKKLAFVEDRTIFEGYSAASIEGIRSASSNPALTLPEDPREIPDVISQALSELRLAGVDGPYSVLLSADVYTKVSETSDHGYPIREHLNRLVDGDIIWAPAIDGAFVLTTRGGDFDLQLGTDVAIGYASHDTDTVRLYLQETLTFLCYTAEASVALSH
notes: also called Rv0798c; copies: 60
stoichiometry N: 60 and 48 and 52 and 54

— article PMC11830004, “In situ and in vitro cryo-EM reveal structures of mycobacterial encapsulin assembly intermediates” (Communications Biology, 2025)
